We go through one molecule from article PMC4477937, “Alpha-2-Macroglobulin Is Acutely Sensitive to Freezing and Lyophilization: Implications for Structural and Functional Studies” (PLoS ONE, 2015).

The target in one data set is Creatine phosphokinase (UniProt P00563 1-381). The data set is described as follows: cell-based or functional assay.
Data set [1] concerns the molecule itself. Description: native gel or EMSA; native PAGE, NuPAGE 3–8% Tris-acetate, Tris-glycine running buffer, stained with InstantBlue; purified α2M after storage (4°C for months, -20°C, rapid freezing, lyophilization).

Sequence of Creatine phosphokinase (P00563 whole entry): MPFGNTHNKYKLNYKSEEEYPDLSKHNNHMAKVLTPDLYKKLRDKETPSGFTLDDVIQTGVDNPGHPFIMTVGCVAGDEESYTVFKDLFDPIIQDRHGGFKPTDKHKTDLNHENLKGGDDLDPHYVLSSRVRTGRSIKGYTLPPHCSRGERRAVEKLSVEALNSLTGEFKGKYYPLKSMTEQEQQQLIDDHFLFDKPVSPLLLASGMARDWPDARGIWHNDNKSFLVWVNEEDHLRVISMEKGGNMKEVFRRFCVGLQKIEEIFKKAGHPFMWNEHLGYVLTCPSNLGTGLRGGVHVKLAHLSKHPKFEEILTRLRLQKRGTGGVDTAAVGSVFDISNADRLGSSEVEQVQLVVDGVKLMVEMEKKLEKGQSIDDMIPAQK

B1: Alpha-2-macroglobulin (natural protein, human, UniProt P01023 24-1474, looked up)
chain: SVSGKPQYMVLVPSLLHTETTEKGCVLLSYLNETVTVSASLESVRGNRSLFTDLEAENDVLHCVAFAVPKSSSNEEVMFLTVQVKGPTQEFKKRTTVMVKNEDSLVFVQTDKSIYKPGQTVKFRVVSMDENFHPLNELIPLVYIQDPKGNRIAQWQSFQLEGGLKQFSFPLSSEPFQGSYKVVVQKKSGGRTEHPFTVEEFVLPKFEVQVTVPKIITILEEEMNVSVCGLYTYGKPVPGHVTVSICRKYSDASDCHGEDSQAFCEKFSGQLNSHGCFYQQVKTKVFQLKRKEYEMKLHTEAQIQEEGTVVELTGRQSSEITRTITKLSFVKVDSHFRQGIPFFGQVRLVDGKGVPIPNKVIFIRGNEANYYSNATTDEHGLVQFSINTTNVMGTSLTVRVNYKDRSPCYGYQWVSEEHEEAHHTAYLVFSPSKSFVHLEPMSHELPCGHTQTVQAHYILNGGTLLGLKKLSFYYLIMAKGGIVRTGTHGLLVKQEDMKGHFSISIPVKSDIAPVARLLIYAVLPTGDVIGDSAKYDVENCLANKVDLSFSPSQSLPASHAHLRVTAAPQSVCALRAVDQSVLLMKPDAELSASSVYNLLPEKDLTGFPGPLNDQDNEDCINRHNVYINGITYTPVSSTNEKDMYSFLEDMGLKAFTNSKIRKPKMCPQLQQYEMHGPEGLRVGFYESDVMGRGHARLVHVEEPHTETVRKYFPETWIWDLVVVNSAGVAEVGVTVPDTITEWKAGAFCLSEDAGLGISSTASLRAFQPFFVELTMPYSVIRGEAFTLKATVLNYLPKCIRVSVQLEASPAFLAVPVEKEQAPHCICANGRQTVSWAVTPKSLGNVNFTVSAEALESQELCGTEVPSVPEHGRKDTVIKPLLVEPEGLEKETTFNSLLCPSGGEVSEELSLKLPPNVVEESARASVSVLGDILGSAMQNTQNLLQMPYGCGEQNMVLFAPNIYVLDYLNETQQLTPEIKSKAIGYLNTGYQRQLNYKHYDGSYSTFGERYGRNQGNTWLTAFVLKTFAQARAYIFIDEAHITQALIWLSQRQKDNGCFRSSGSLLNNAIKGGVEDEVTLSAYITIALLEIPLTVTHPVVRNALFCLESAWKTAQEGDHGSHVYTKALLAYAFALAGNQDKRKEVLKSLNEEAVKKDNSVHWERPQKPKAPVGHFYEPQAPSAEVEMTSYVLLAYLTAQPAPTSEDLTSATNIVKWITKQQNAQGGFSSTQDTVVALHALSKYGAATFTRTGKAAQVTIQSSGTFSSKFQVDNNNRLLLQQVSLPELPGEYSMKVTGEGCVYLQTSLKYNILPEKEEFPFALGVQTLPQTCDEPKAHTSFQISLSVSYTGSRSASNMAIVDVKMVSGFIPLKPTVKMLERSNHVSRTEVSSNHVLIYLDKVSNQTLSLFFTVLQDVPVRDLKPAIVKVYDYYETDEFAIAEYNAPCSKDLGNA
notes: alpha-2-macroglobulin, human, from blood plasma; 720 kDa homotetramer of four 180 kDa subunits, paired by disulfide bonds into dimers; Storage changes the conformation (native, transformed, dimers, higher molecular weight species); also called α2M; native α2M; source: purified from human blood plasma (Zn-charged HiTrap chelating column, Sephacryl S-300 gel filtration)
In the case of B1, the “decrease in turbidity (absorbance at 595 nm) of CPK (5 μM) at 43°C over 8 hrs with α2M at a molar ratio of α2M-to-CPK of 1:15; α2M rapidly frozen in liquid nitrogen and stored at -20°C for 1 month” value in the data set with Creatine phosphokinase was ~50%. The binding result in data set [1] is “binds”.
